Assay results published in US20200165324A1.

Columns and labels:
[1] = molecular target: BG505 gp120 captured from lysed virions (HIV isolate BG505); assay: ELISA, gp120 captured from lysed virions
[2] = molecular target: JR-CSF G473A; assay: ELISA, gp120 captured from lysed virions
[3] = molecular target: JR-CSF N262A; assay: ELISA, gp120 captured from lysed virions
[4] = molecular target: BG505 M475A; assay: ELISA, gp120 captured from lysed virions
[5] = molecular target: JR-CSF N276A; assay: ELISA, gp120 captured from lysed virions
[6] = molecular target: BG505 L179A; assay: ELISA, gp120 captured from lysed virions
[7] = molecular target: BG505 N197A; assay: ELISA, gp120 captured from lysed virions
[8] = molecular target: JR-CSF N362A; assay: ELISA, gp120 captured from lysed virions
[9] = molecular target: JR-CSF R476A; assay: ELISA, gp120 captured from lysed virions
[10] = molecular target: BG505 G367A; assay: ELISA, gp120 captured from lysed virions
[11] = molecular target: BG505 K121A; assay: ELISA, gp120 captured from lysed virions
[12] = molecular target: BG505 T373A; assay: ELISA, gp120 captured from lysed virions
[13] = molecular target: BG505 T372A; assay: ELISA, gp120 captured from lysed virions
[14] = molecular target: JR-CSF E370A; assay: ELISA, gp120 captured from lysed virions
[15] = molecular target: JR-CSF K207A; assay: ELISA, gp120 captured from lysed virions
[16] = molecular target: BG505 V371A; assay: ELISA, gp120 captured from lysed virions
[17] = molecular target: BG505 S364A; assay: ELISA, gp120 captured from lysed virions
[18] = molecular target: JR-CSF V371A; assay: ELISA, gp120 captured from lysed virions
[19] = molecular target: BG505 R476A; assay: ELISA, gp120 captured from lysed virions
[20] = molecular target: BG505 N332T; assay: ELISA, gp120 captured from lysed virions
[21] = molecular target: JR-CSF S199A; assay: ELISA, gp120 captured from lysed virions
[22] = molecular target: JR-CSF T198A; assay: ELISA, gp120 captured from lysed virions
[23] = molecular target: BG505 E370A; assay: ELISA, gp120 captured from lysed virions
[24] = molecular target: JR-CSF G472A; assay: ELISA, gp120 captured from lysed virions
[25] = molecular target: JR-CSF G471A; assay: ELISA, gp120 captured from lysed virions
[26] = molecular target: BG505 G471A; assay: ELISA, gp120 captured from lysed virions
[27] = molecular target: BG505 L369A; assay: ELISA, gp120 captured from lysed virions
[28] = molecular target: BG505 N363A; assay: ELISA, gp120 captured from lysed virions
[29] = molecular target: JR-CSF N279A; assay: ELISA, gp120 captured from lysed virions
[30] = molecular target: JR-CSF N283A; assay: ELISA, gp120 captured from lysed virions
[31] = molecular target: BG505 S365A; assay: ELISA, gp120 captured from lysed virions
[32] = molecular target: JR-CSF G366A; assay: ELISA, gp120 captured from lysed virions
[33] = molecular target: JR-CSF T373A; assay: ELISA, gp120 captured from lysed virions
[34] = molecular target: BG505 G366A; assay: ELISA, gp120 captured from lysed virions
[35] = molecular target: BG505 N283A; assay: ELISA, gp120 captured from lysed virions
[36] = molecular target: JR-CSF S365A; assay: ELISA, gp120 captured from lysed virions
[37] = molecular target: JR-CSF N276A
[38] = molecular target: BG505 L179A
[39] = molecular target: JR-CSF N362A
[40] = molecular target: JR-CSF R476A
[41] = molecular target: BG505 K121A
[42] = molecular target: BG505 T373A
[43] = molecular target: BG505 T372A
[44] = molecular target: JR-CSF K207A
[45] = molecular target: BG505 S364A
[46] = molecular target: BG505 R476A
[47] = molecular target: BG505 N332T
[48] = molecular target: JR-CSF S199A
[49] = molecular target: JR-CSF T198A
[50] = molecular target: JR-CSF G471A
[51] = molecular target: BG505 G471A
[52] = molecular target: BG505 L369A
[53] = molecular target: BG505 N363A
[54] = molecular target: JR-CSF N283A
[55] = molecular target: BG505 S365A
[56] = molecular target: JR-CSF S365A
[57] = molecular target: BG505 gp120 captured from lysed virions (HIV isolate BG505); assay: ELISA on BG505 gp120 in PBS pH 7.4

NC-Cow1 (antibody)
EC50 [1]: 0.04 mg/L | EC50 [2]: 6.83 mg/L | EC50 [3]: 5.64 mg/L | EC50 [4]: 0.08 mg/L | EC50 [5]: 0.029 mg/L | EC50 [6]: 0.05 mg/L | EC50 [7]: 0.04 mg/L | EC50 [8]: 0.038 mg/L | EC50 [9]: 0.281 mg/L | EC50 [10]: 1.34 mg/L | EC50 [11]: 0.04 mg/L | EC50 [12]: 0.12 mg/L | EC50 [13]: 0.07 mg/L | EC50 [14]: 1.16 mg/L | EC50 [15]: 0.052 mg/L | EC50 [16]: 0.24 mg/L | EC50 [17]: 0.14 mg/L | EC50 [18]: 1.36 mg/L | EC50 [19]: 0.07 mg/L | EC50 [20]: 0.05 mg/L | EC50 [21]: 0.058 mg/L | EC50 [22]: 0.045 mg/L | EC50 [23]: 0.11 mg/L | EC50 [24]: 11.2 mg/L | EC50 [25]: 0.148 mg/L | EC50 [26]: 0.05 mg/L | EC50 [27]: 0.24 mg/L | EC50 [28]: 0.09 mg/L | EC50 [29]: 0.036 mg/L | EC50 [30]: 0.133 mg/L | EC50 [31]: 0.07 mg/L | EC50 [32]: 0.027 mg/L | EC50 [33]: 0.067 mg/L | EC50 [34]: 0.13 mg/L | EC50 [35]: 0.1 mg/L | EC50 [36]: 0.028 mg/L | IC50, pseudovirus neutralization [37]: 1.76 mg/L | IC50, pseudovirus neutralization [38]: 0.018 mg/L | IC50, pseudovirus neutralization [39]: 0.496 mg/L | IC50, pseudovirus neutralization [40]: > 50 mg/L | IC50, pseudovirus neutralization [41]: 0.029 mg/L | IC50, pseudovirus neutralization [42]: 0.016 mg/L | IC50, pseudovirus neutralization [43]: 0.028 mg/L | IC50, pseudovirus neutralization [44]: 1.8 mg/L | IC50, pseudovirus neutralization [45]: 0.014 mg/L | IC50, pseudovirus neutralization [46]: 0.012 mg/L | IC50, pseudovirus neutralization [47]: 0.018 mg/L | IC50, pseudovirus neutralization [48]: 0.404 mg/L | IC50, pseudovirus neutralization [49]: 2.98 mg/L | IC50, pseudovirus neutralization [50]: 50 mg/L | IC50, pseudovirus neutralization [51]: 0.013 mg/L | IC50, pseudovirus neutralization [52]: 0.015 mg/L | IC50, pseudovirus neutralization [53]: 0.013 mg/L | IC50, pseudovirus neutralization [54]: 6.94 mg/L | IC50, pseudovirus neutralization [55]: 0.015 mg/L | IC50, pseudovirus neutralization [56]: 0.129 mg/L | EC50 (read off the curve) [57]: 0.1 mg/L
